From paper PMC3928684 (Biotechnology and bioengineering, 2009)

Tests used:
[1] = target: T1, LovD (simvastatin synthase) (Aspergillus terreus, UniProt Q9Y7D1); assay: HPLC at […] nm, conversion of MJSS to simvastatin sodium salt; assay type: biochemical; details: read-out: Wild Type; MJSS fixed at 2 mM, DMB-S-MMP 0.25-5 mM; 10% DMSO
T1 sequence (Q9Y7D1 1-413): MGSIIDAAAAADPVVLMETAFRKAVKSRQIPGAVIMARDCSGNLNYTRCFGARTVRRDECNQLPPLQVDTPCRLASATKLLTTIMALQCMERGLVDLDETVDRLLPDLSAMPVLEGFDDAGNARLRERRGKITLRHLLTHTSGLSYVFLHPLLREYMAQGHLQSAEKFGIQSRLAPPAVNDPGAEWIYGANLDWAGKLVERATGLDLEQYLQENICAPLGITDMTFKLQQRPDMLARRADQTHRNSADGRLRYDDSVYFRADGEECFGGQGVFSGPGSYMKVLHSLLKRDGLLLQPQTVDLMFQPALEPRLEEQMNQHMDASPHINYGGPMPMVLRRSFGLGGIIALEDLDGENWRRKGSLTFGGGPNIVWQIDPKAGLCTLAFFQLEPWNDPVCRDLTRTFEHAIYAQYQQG

[2] = test system: C[C@H]1C=C2C=C[C@H](C)[C@H](CC[C@@H](O)C[C@@H](O)CC(=O)O)[C@H]2[C@@H](O)C1; assay: purified protein; assay type: biochemical, Aspergillus terreus; details: DMB-S-MMP fixed at 2 mM, MJSS 0.25-5 mM; 10% DMSO
[3] = test system: CCC(C)(C)C(=O)SCCC(=O)OC; assay: purified protein; assay type: biochemical, Aspergillus terreus; details: MJSS fixed at 2 mM, DMB-S-MMP 0.25-5 mM; 10% DMSO
[4] = substrate: C[C@H]1C=C2C=C[C@H](C)[C@H](CC[C@@H](O)C[C@@H](O)CC(=O)O)[C@H]2[C@@H](O)C1; assay: purified protein; assay type: biochemical, Aspergillus terreus; details: DMB-S-MMP fixed at 2 mM, MJSS 0.25-5 mM; 10% DMSO; remark: listed apart in the source

Molecule `CCC(C)(C)C(=O)SCCC(=O)OC` [DMB-S-MMP, α-dimethylbutyryl-S-methyl-3-mercaptopropionate] has a Km [1] of 670 ± 40 µM.

Work on “LovD (simvastatin synthase) (Aspergillus terreus; C40A)” yielded a Km [2] of 0.80 ± 0.21 mM, a kcat [2] of 0.62 ± 0.05 min⁻¹ and a Km [3] of 0.63 ± 0.06 mM.

“LovD (simvastatin synthase) (Aspergillus terreus; C40A/C60N)” gave a Km [2] of 0.82 ± 0.10 mM, a kcat [2] of 0.60 ± 0.02 min⁻¹ and a Km [3] of 0.61 ± 0.03 mM.

“LovD (simvastatin synthase) (Aspergillus terreus; C60A)” showed a Km [2] of 0.81 ± 0.19 mM, a kcat [2] of 0.60 ± 0.04 min⁻¹ and a Km [3] of 0.58 ± 0.03 mM.

B1: LovD (simvastatin synthase) (Aspergillus terreus) (protein)
chain: MGSIIDAAAAADPVVLMETAFRKAVKSRQIPGAVIMARDCSGNLNYTRCFGARTVRRDECNQLPPLQVDTPCRLASATKLLTTIMALQCMERGLVDLDETVDRLLPDLSAMPVLEGFDDAGNARLRERRGKITLRHLLTHTSGLSYVFLHPLLREYMAQGHLQSAEKFGIQSRLAPPAVNDPGAEWIYGANLDWAGKLVERATGLDLEQYLQENICAPLGITDMTFKLQQRPDMLARRADQTHRNSADGRLRYDDSVYFRADGEECFGGQGVFSGPGSYMKVLHSLLKRDGLLLQPQTVDLMFQPALEPRLEEQMNQHMDASPHINYGGPMPMVLRRSFGLGGIIALEDLDGENWRRKGSLTFGGGPNIVWQIDPKAGLCTLAFFQLEPWNDPVCRDLTRTFEHAIYAQYQQG
B1 gave a Km [4] of 0.78 ± 0.12 mM and a kcat [4] of 0.62 ± 0.03 min⁻¹.
